Laboratory results from patent publication US20220010021A1 (Sanofi, published 2022).

Target: human FGFR1c + KLB receptor complex on HEK293 iLite FGF21 reporter cells (human, UniProt P11362 22-822; Q86Z14 1-1044)
Assay: cell-based or functional assay

human FGFR1c + KLB receptor complex on HEK293 iLite FGF21 reporter cells, sequence (P11362 22-822, chain 1 of 2): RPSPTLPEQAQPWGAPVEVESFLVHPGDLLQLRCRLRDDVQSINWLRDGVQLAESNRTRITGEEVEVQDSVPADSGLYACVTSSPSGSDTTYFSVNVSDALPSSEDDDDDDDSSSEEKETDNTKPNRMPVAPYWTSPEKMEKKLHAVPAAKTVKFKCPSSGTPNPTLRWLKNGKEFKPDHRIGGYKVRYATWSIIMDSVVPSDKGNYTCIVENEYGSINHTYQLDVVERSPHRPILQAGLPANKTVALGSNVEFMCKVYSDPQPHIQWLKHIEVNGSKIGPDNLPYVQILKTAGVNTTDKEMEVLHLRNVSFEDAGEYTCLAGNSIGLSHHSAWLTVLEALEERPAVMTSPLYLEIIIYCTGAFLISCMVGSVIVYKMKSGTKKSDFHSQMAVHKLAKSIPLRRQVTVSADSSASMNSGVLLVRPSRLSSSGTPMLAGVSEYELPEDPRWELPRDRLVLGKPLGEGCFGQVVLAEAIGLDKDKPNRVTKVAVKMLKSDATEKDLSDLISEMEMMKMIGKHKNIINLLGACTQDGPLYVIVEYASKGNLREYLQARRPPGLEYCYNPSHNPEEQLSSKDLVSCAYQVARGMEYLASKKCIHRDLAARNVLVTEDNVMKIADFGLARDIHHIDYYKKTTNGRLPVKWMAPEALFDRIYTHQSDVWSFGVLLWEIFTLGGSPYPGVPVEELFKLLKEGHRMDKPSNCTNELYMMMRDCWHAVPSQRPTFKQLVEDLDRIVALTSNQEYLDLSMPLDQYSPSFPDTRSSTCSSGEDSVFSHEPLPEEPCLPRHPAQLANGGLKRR
human FGFR1c + KLB receptor complex on HEK293 iLite FGF21 reporter cells, sequence (Q86Z14 whole entry, chain 2 of 2): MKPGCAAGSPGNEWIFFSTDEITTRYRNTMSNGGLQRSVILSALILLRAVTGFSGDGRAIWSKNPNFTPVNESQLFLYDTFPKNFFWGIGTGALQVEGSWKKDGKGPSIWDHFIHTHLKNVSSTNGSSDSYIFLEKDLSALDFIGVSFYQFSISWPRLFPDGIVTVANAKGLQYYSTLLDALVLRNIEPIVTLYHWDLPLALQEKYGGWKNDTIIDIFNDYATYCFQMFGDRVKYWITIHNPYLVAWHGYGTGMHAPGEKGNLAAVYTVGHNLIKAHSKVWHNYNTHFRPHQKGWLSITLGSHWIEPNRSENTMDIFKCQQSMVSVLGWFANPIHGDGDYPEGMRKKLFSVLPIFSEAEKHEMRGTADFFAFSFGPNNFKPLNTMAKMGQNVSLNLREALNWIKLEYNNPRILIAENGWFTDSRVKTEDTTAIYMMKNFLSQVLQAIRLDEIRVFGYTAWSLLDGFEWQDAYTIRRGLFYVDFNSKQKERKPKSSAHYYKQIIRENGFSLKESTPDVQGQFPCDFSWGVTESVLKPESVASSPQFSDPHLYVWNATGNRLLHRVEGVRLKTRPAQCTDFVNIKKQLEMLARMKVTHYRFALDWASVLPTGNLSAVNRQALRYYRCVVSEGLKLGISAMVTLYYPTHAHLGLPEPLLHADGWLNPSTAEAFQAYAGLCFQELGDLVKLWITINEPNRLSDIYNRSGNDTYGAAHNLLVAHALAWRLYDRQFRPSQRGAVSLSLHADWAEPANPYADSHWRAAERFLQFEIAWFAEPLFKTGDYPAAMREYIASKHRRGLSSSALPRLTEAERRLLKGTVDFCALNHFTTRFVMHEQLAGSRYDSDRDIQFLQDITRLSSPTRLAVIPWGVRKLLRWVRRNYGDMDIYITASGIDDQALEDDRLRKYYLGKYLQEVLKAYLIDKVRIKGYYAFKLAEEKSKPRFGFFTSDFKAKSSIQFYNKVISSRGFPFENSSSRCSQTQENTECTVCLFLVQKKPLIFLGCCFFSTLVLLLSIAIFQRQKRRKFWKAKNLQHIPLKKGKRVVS

Binder	EC50	Emax
human FGF21 (ligand) GHPIPDSSPLLQFGGQVRQRYLYTDDAQQTEAHLEIREDGTVGGAADQSPESLLQLKALKPGVIQILGVKTSRFLCQRPDGALYGSLHFDPEACSFRELLLEDGYNVYQSEAHGLPLHLPGNKSPHRDPAPRGPARFLPLPGLPPAPPEPPGILAPQPPDVGSSDPLSMVGPSQGRSPSYAS	0.35 nM	4000%
Ab0181 (antibody, IgG4, V domains shown) VH: not shown VL: SYVLTQPPSVSVAPGQTARITCGGNNIGSESVHWYQQKPGQAPVLVVYYDSDRPSGIPERFSGSNSGNTATLTISRVEAGDEADYYCQVWDGNSDHVVFGGGTKLTVLG	0.03 nM	2110%
Ab0192 (antibody, IgG4, V domains shown) VH: not shown VL: SYVLTQPPSVSVAPGQTARITCGGNNIGSESVHWYQQKPGQAPVLVVYDDSDRPSGIPERFSGSNSGNTATLTISRVEAGDEADYYCQVWDGNSEHVVFGGGTKLTVLG	3.67 nM	1610%
Ab0209 (antibody, IgG4, V domains shown) VH: not shown VL: SYVLTQPPSVSVAPGQTARITCGGNNIGSESVHWYQQKPGQAPVLVVYYDSDRPSGIPERFSGSNSGNTATLTISRVEAGDEADYYCQVWDGNSDHVVFGGGTKLTVLG	15.3 nM	1960%
Ab0185 (antibody, IgG4, V domains shown) VH: not shown VL: SYVLTQPPSVSVAPGQTARITCGGNNIGSESVHWYQQKPGQAPVLVVYDDSDRPSGIPERFSGSNSGNTATLTISRVEAGDEADYYCQVWDGNSEHVVFGGGTKLTVLG	0.06 nM	2350%
Ab0313 (antibody, IgG4, V domains shown) VH: QVTLKESGPVLVKPTETLTLTCTVSGFSLNNARVGVSWIRQPPGKALEWLAHIFSNDEKSYSTSLKSRLTISKDTSKSQVVLTMTNMDPVDTATYYCARSVVTGGYYYEGMDVWGQGTTVTVSS VL: SYVLTQPPSVSVAPGQTARITCGGNNIGSESVHWYQQKPGQAPVLVVYDDSDRPSGIPERFSGSNSGNTATLTISRVEAGDEADYYCQVWTGESDHVVFGGGTKLTVLG	0.04 nM	1130%
Ab0206 (antibody, IgG4, V domains shown) VH: QVTLKESGPVLVKPTETLTLTCTVSGFSLNNARVGVSWIRQPPGKALEWLAHIFSNDEKSYSTSLKSRLTISKDTSKSQVVLTMTNMDPVDTATYYCARSVVTGGYYYEGMDVWGQGTTVTVSS VL: SYVLTQPPSVSVAPGQTARITCGGNNIGSESVHWYQQKPGQAPVLVVYDDSDRPSGIPERFSGSNSGNTATLTISRVEAGDEADYYCQVWDGNSEHVVFGGGTKLTVLG	0.69 nM	2640%
Ab0300 (antibody, IgG4, V domains shown) VH: QVTLKESGPVLVKPTETLTLTCTVSGFSLNNARVGVSWIRQPPGKALEWLAHIFSNDEKSYSTSLKSRLTISKDTSKSQVVLTMTNMDPVDTATYYCARSVVTGGYYYEGMDVWGQGTTVTVSS VL: SYVLTQPPSVSVAPGQTARITCGGNNIGSESVHWYQQKPGQAPVLVVYYDSDRPSGIPERFSGSNSGNTATLTISRVEAGDEADYYCQVWTGNSDHVVFGGGTKLTVLG	2.63 nM	605%
Ab0210 (antibody, IgG4, V domains shown) VH: not shown VL: SYVLTQPPSVSVAPGQTARITCGGNNIGSESVHWYQQKPGQAPVLVVYDESDRPSGIPERFSGSNSGNTATLTISRVEAGDEADYYCQVWDGNSDHVVFGGGTKLTVLG	5.31 nM	2390%
Ab0199 (antibody, IgG4, V domains shown) VH: not shown VL: SYVLTQPPSVSVAPGQTARITCGGNNIGSESVHWYQQKPGQAPVLVVYDDSDRPSGIPERFSGSNSGNTATLTISRVEAGDEADYYCQVWDGNSEHVVFGGGTKLTVLG	> 100 nM	736%
Ab0238 (antibody, IgG4, V domains shown) VH: not shown VL: SYVLTQPPSVSVAPGQTARITCGGNNIGSESVHWYQQKPGQAPVLVVYDDSDRPSGIPERFSGSNSGNTATLTISRVEAGDEADYYCQVWDGNSSHVVFGGGTKLTVLG	–	856%
Ab0301 (antibody, IgG4, V domains shown) VH: QVTLKESGPVLVKPTETLTLTCTVSGFSLNNARVGVSWIRQPPGKALEWLAHIFSNDEKSYSTSLKSRLTISKDTSKSQVVLTMTNMDPVDTATYYCARSVVTGGYYYEGMDVWGQGTTVTVSS VL: SYVLTQPPSVSVAPGQTARITCGGSNIGSESVHWYQQKPGQAPVLVVYYDSDRPSGIPERFSGSNSGNTATLTISRVEAGDEADYYCQVWTGNSDHVVFGGGTKLTVLG	21.5 nM	697%
Ab0303 (antibody, IgG4, V domains shown) VH: QVTLKESGPVLVKPTETLTLTCTVSGFSLNNARVGVSWIRQPPGKALEWLAHIFSNDEKSYSTSLKSRLTISKDTSKSQVVLTMTNMDPVDTATYYCARSVVTGGYYYEGMDVWGQGTTVTVSS VL: SYVLTQPPSVSVAPGQTARITCGGSNIGSESVHWYQQKPGQAPVLVVYDESDRPSGIPERFSGSNSGNTATLTISRVEAGDEADYYCQVWTGNSDHVVFGGGTKLTVLG	19.2 nM	809%
Ab0220 (antibody, IgG4, V domains shown) VH: not shown VL: SYVLTQPPSVSVAPGQTARITCGGNNIGSESVHWYQQKPGQAPVLVVYDDSDRPSGIPERFSGSNSGNTATLTISRVEAGDEADYYCQVWDGNSEHVVFGGGTKLTVLG	22.2 nM	1190%
Ab0213 (antibody, IgG4, V domains shown) VH: not shown VL: SYVLTQPPSVSVAPGQTARITCGGNNIGSESVHWYQQKPGQAPVLVVYDDSDRPSGIPERFSGSNSGNTATLTISRVEAGDEADYYCQVWDGNSEHVVFGGGTKLTVLG	> 100 nM	122%
Ab0211 (antibody, IgG4, V domains shown) VH: not shown VL: SYVLTQPPSVSVAPGQTARITCGGNNIGSESVHWYQQKPGQAPVLVVYDDSDRPSGIPERFSGSNSGNTATLTISRVEAGDEADYYCQVWTGNSDHVVFGGGTKLTVLG	12 nM	1600%
Ab0302 (antibody, IgG4, V domains shown) VH: QVTLKESGPVLVKPTETLTLTCTVSGFSLNNARVGVSWIRQPPGKALEWLAHIFSNDEKSYSTSLKSRLTISKDTSKSQVVLTMTNMDPVDTATYYCARSVVTGGYYYEGMDVWGQGTTVTVSS VL: SYVLTQPPSVSVAPGQTARITCGGNNIGSESVHWYQQKPGQAPVLVVYDESDRPSGIPERFSGSNSGNTATLTISRVEAGDEADYYCQVWTGNSDHVVFGGGTKLTVLG	3.94 nM	795%
Ab0304 (antibody, IgG4, V domains shown) VH: QVTLKESGPVLVKPTETLTLTCTVSGFSLNNARVGVSWIRQPPGKALEWLAHIFSNDEKSYSTSLKSRLTISKDTSKSQVVLTMTNMDPVDTATYYCARSVVTGGYYYEGMDVWGQGTTVTVSS VL: SYVLTQPPSVSVAPGQTARITCGGNNIGSESVHWYQQKPGQAPVLVVYYESDRPSGIPERFSGSNSGNTATLTISRVEAGDEADYYCQVWTGNSDHVVFGGGTKLTVLG	11.4 nM	686%
Ab0237 (antibody, IgG4, V domains shown) VH: not shown VL: SYVLTQPPSVSVAPGQTARITCGGNNIGSESVHWYQQKPGQAPVLVVYDDSDRPSGIPERFSGSNSGNTATLTISRVEAGDEADYYCQVWDGNSAHVVFGGGTKLTVLG	> 100 nM	667%
Ab0299 (antibody, IgG4, V domains shown) VH: QVTLKESGPVLVKPTETLTLTCTVSGFSLNNARVGVSWIRQPPGKALEWLAHIFSNDEKSYSTSLKSRLTISKDTSKSQVVLTMTNMDPVDTATYYCARSVVTGGYYYEGMDVWGQGTTVTVSS VL: SYVLTQPPSVSVAPGQTARITCGGSNIGSESVHWYQQKPGQAPVLVVYDDSDRPSGIPERFSGSNSGNTATLTISRVEAGDEADYYCQVWTGNSDHVVFGGGTKLTVLG	0.1 nM	1240%
Ab0224 (antibody, IgG4, V domains shown) VH: not shown VL: SYVLTQPPSVSVAPGQTARITCGGNNIGSESVHWYQQKPGQAPVLVVYADSDRPSGIPERFSGSNSGNTATLTISRVEAGDEADYYCQVWDGNSDHVVFGGGTKLTVLG	0.05 nM	2260%
Ab0386 (antibody, IgG4, V domains shown) VH: QVTLKESGPVLVKPTETLTLTCTVSGFSLNNARVGVSWIRQPPGKALEWLAHIWSNDEKSYSTSLKSRLTISKDTSKSQVVLTMTNMDPVDTATYYCARSVVTGGYYYEGMDVWGQGTTVTVSS VL: SYVLTQPPSVSVAPGQTARITCGGNNIGSESVHWYQQKPGQAPVLVVYDDSDRPSGIPERFSGSNSGNTATLTISRVEAGDEADYYCQVFDGNSSHVVFGGGTKLTVLG	> 100 nM	–
Ab0350 (antibody, IgG4, V domains shown) VH: QVTLKESGPVLVKPTETLTLTCTVSGFSLNNARVGVSWIRQPPGKALEWLAHIFSNDEKSYSTSLKSRLTISKDTSKSQVVLTMTNMDPVDTATYYCARSVVTGGYYYEGMDVWGQGTTVTVSS VL: SYVLTQPPSVSVAPGQTARITCGGSNIGSESVHWYQQKPGQAPVLVVYEESDRPSGIPERFSGSNSGNTATLTISRVEAGDEADYYCQVWAGSSDHVVFGGGTKLTVLG	1.46 nM	493%
Ab0415 (antibody, IgG4, V domains shown) VH: QVTLKESGPVLVKPTETLTLTCTVSGFSLNNARVGVSWIRQPPGKALEWLAHIFSNDEKSYSTSLKSRLTISKDTSKSQVVLTMTNMDPVDTATYYCARSVVTGGYYYEGMDVWGQGTTVTVSS VL: SYVLTQPPSVSVAPGQTARITCGGSNIGSESVHWYQQKPGQAPVLVVYYESDRPSGIPERFSGSNSGNTATLTISRVEAGDEADYYCQVWAGESDHVVFGGGTKLTVLG	0.3 nM	674%
Ab0330 (antibody, IgG4, V domains shown) VH: QVTLKESGPVLVKPTETLTLTCTVSGFSLNNARVGVSWIRQPPGKALEWLAHIFSNDEKSYSTSLKSRLTISKDTSKSQVVLTMTNMDPVDTATYYCARSVVTGGYYYEGMDVWGQGTTVTVSS VL: SYVLTQPPSVSVAPGQTARITCGGSNIGSESVHWYQQKPGQAPVLVVYSESDRPSGIPERFSGSNSGNTATLTISRVEAGDEADYYCQVWAGESDHVVFGGGTKLTVLG	0.15 nM	932%
